# Assay results published in patent US20020111475A1.
# Biological target: flt3 on murine WWF7 cells
# Assay: cell-based or functional assay
"Sp.Ac. MUT / Sp.Ac. WT (WWF7 cell proliferation units/ml per flt3-L ng/ml by ELISA, yeast supernatant) (ratio to wild type)","specific activity of WT protein (WWF7 cell proliferation, yeast supernatant), averaged over 11 independent assays [units/ng]",Substance
0,,flt3-L mutant F81S (from UniProt P49771 24-179) (ligand)
0,,flt3-L mutant H8R (from UniProt P49771 24-179) (ligand)
1.71,,flt3-L mutant H8Y (from UniProt P49771 24-179) (ligand)
0,,flt3-L mutant I11Y (from UniProt P49771 24-179) (ligand)
2.88,,flt3-L mutant K84E (from UniProt P49771 24-179) (ligand)
1.63,,flt3-L mutant K84T (from UniProt P49771 24-235) (ligand)
0.02,,flt3-L mutant K116E (from UniProt P49771 24-179) (ligand)
0.69,,flt3-L mutant L26F (from UniProt P49771 24-235) (ligand)
0.07,,flt3-L mutant L27P (from UniProt P49771 24-179) (ligand)
2.16,,flt3-L mutant Q122R (from UniProt P49771 24-179) (ligand)
0.58,,flt3-L mutant V34L (from UniProt P49771 24-235) (ligand)
2.19,,flt3-L mutant W118R (from UniProt P49771 24-179) (ligand)
1,0.95,wild type flt3-L (yeast-derived recombinant human flt3 Ligand) (from UniProt P49771 24-179)
